Reference: PMC9482650, “Quantitative fragmentomics allow affinity mapping of interactomes” (Nature Communications, 2022)

Legend:
Assay in all cases: holdup assay
Design in all cases: key: below the threshold = too weak to quantify, mostly under pKd 3.1 to 4
Settings in all cases: plain residues with an end cap or a label only (N-terminal biotin on a linker: ttds)
DFNB31_2, Q9P202 = target: T1, DFNB31_2, Q9P202
T1 sequence (Q9P202 274-371, limits assumed, looked up): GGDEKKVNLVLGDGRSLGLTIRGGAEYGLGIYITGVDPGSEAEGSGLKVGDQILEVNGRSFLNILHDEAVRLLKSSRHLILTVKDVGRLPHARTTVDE

CASK, O14936 = target: CASK, O14936
GRID2IP_1, A4D2P6 = target: GRID2IP_1, A4D2P6
Inadl_5, Q8NI35 = target: Inadl_5, Q8NI35
GIPC2, Q8TF65 = target: GIPC2, Q8TF65
FRMPD2_3, Q68DX3 = target: FRMPD2_3, Q68DX3
PDLIM1, O00151 = target: PDLIM1, O00151
TJP2_1, Q9UDY2 = target: TJP2_1, Q9UDY2
FRMPD1, Q5SYB0 = target: T2, FRMPD1, Q5SYB0
T2 sequence (Q5SYB0 52-145, limits assumed, looked up): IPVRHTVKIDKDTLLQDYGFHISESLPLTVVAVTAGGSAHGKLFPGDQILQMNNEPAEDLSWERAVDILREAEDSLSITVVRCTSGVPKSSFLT

DLG3_1, Q92796 = target: T3, DLG3_1, Q92796
T3 sequence (Q92796 125-227, limits assumed, looked up): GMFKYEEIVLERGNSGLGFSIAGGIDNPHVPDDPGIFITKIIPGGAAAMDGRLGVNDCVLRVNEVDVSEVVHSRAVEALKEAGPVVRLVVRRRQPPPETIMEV

MAGI1_1, Q96QZ7 = target: MAGI1_1, Q96QZ7
DLG2_3, Q15700 = target: DLG2_3, Q15700
Inadl_10, Q8NI35 = target: Inadl_10, Q8NI35
GRIP2_3, Q9C0E4 = target: GRIP2_3, Q9C0E4
SCRIB_2, Q14160 = target: SCRIB_2, Q14160
LIN7A, O14910 = target: T4, LIN7A, O14910
T4 sequence (O14910 103-200, limits assumed, looked up): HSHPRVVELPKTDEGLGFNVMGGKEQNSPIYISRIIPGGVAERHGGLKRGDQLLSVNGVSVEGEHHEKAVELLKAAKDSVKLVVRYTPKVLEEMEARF

SCRIB_1, Q14160 = target: SCRIB_1, Q14160
Inadl_1, Q8NI35 = target: Inadl_1, Q8NI35
DFNB31_1, Q9P202 = target: T5, DFNB31_1, Q9P202
T5 sequence (Q9P202 135-233, limits assumed, looked up): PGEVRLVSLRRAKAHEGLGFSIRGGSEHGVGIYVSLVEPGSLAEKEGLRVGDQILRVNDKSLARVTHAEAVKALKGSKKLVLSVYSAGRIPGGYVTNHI

GRASP, Q7Z6J2 = target: GRASP, Q7Z6J2
NHERF3_1, Q5T2W1 = target: T6, NHERF3_1, Q5T2W1
T6 sequence (Q5T2W1 4-100, limits assumed, looked up): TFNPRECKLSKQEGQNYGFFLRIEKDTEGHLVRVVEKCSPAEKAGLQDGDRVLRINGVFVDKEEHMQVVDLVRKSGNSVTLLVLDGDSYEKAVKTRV

PARD3B_1, Q8TEW8 = target: T7, PARD3B_1, Q8TEW8
T7 sequence (Q8TEW8 196-299, limits assumed, looked up): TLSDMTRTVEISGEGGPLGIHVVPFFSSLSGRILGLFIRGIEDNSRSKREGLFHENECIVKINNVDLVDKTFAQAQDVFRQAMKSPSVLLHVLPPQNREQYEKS

MAGI2_3, Q86UL8 = target: MAGI2_3, Q86UL8
RADIL, Q96JH8 = target: T8, RADIL, Q96JH8
T8 sequence (Q96JH8 971-1071, limits assumed, looked up): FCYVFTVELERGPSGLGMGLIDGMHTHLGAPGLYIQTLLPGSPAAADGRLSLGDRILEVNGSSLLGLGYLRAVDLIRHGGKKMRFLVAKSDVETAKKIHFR

MPDZ_10, O75970 = target: T9, MPDZ_10, O75970
T9 sequence (O75970 1624-1722, limits assumed, looked up): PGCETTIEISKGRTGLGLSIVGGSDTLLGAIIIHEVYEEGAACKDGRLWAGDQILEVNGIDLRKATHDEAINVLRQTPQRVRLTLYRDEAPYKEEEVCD

MPDZ_5, O75970 = target: T10, MPDZ_5, O75970
T10 sequence (O75970 695-796, limits assumed, looked up): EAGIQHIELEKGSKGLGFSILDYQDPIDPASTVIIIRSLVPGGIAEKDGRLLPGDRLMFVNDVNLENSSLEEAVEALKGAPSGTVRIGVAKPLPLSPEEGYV

IL16_3, Q14005 = target: IL16_3, Q14005
MAGI2_2, Q86UL8 = target: MAGI2_2, Q86UL8
MAGI2_2, Q86UL8, sequence (Q86UL8 410-522): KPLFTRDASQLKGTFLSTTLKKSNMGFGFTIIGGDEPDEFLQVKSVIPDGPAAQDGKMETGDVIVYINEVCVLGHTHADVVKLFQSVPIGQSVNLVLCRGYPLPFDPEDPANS

PDLIM1, O00151, sequence (O00151 1-87): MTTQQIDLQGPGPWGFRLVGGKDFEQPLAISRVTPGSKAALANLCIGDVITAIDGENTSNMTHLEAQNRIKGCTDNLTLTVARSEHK
SCRIB_2, Q14160, sequence (Q14160 857-960): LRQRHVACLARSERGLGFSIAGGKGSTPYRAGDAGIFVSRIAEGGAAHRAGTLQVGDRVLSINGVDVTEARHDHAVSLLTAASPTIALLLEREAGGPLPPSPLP
GRIP2_3, Q9C0E4, sequence (Q9C0E4 238-339): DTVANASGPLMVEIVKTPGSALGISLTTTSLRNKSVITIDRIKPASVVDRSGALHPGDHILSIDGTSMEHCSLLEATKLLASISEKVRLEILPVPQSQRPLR
GRID2IP_1, A4D2P6, sequence (A4D2P6 1-87): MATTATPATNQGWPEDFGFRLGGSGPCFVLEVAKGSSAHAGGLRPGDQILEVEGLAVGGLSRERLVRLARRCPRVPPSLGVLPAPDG
TJP2_1, Q9UDY2, sequence (Q9UDY2 24-128): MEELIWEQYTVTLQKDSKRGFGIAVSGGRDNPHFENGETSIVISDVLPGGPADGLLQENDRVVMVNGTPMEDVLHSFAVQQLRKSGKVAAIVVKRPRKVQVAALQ
SCRIB_1, Q14160, sequence (Q14160 718-814): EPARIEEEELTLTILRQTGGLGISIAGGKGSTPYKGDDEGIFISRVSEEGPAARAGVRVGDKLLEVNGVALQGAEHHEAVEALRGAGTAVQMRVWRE
Inadl_5, Q8NI35, sequence (Q8NI35 673-780): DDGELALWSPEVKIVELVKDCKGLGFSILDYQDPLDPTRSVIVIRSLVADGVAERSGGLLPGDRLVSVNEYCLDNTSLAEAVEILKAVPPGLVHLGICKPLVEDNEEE
IL16_3, Q14005, sequence (Q14005 1107-1207): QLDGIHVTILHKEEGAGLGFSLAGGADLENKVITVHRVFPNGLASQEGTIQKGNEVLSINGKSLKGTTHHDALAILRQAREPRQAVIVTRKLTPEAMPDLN
MAGI2_3, Q86UL8, sequence (Q86UL8 600-682): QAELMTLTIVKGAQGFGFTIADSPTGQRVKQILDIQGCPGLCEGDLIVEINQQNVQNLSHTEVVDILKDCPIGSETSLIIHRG
Inadl_10, Q8NI35, sequence (Q8NI35 1673-1763): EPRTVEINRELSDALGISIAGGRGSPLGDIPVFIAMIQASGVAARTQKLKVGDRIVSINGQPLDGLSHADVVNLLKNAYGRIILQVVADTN
GIPC2, Q8TF65, sequence (Q8TF65 112-203): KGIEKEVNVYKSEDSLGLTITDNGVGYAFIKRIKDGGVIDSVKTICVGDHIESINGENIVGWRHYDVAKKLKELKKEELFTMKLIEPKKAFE
Inadl_1, Q8NI35, sequence (Q8NI35 113-229): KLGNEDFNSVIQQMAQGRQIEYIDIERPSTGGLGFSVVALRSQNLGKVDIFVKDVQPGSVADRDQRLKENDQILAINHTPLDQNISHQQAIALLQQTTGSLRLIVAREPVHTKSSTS
FRMPD2_3, Q68DX3, sequence (Q68DX3 1073-1166): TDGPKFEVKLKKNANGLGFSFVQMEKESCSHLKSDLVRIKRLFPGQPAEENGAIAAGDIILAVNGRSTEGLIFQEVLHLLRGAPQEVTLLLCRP
GRASP, Q7Z6J2, sequence (Q7Z6J2 96-193): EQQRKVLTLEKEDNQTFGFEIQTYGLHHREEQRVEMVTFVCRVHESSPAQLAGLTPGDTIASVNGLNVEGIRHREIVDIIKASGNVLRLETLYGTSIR
CASK, O14936, sequence (O14936 487-570): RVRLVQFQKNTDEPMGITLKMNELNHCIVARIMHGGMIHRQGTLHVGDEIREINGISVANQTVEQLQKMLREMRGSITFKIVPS
MAGI1_1, Q96QZ7, sequence (Q96QZ7 1-106): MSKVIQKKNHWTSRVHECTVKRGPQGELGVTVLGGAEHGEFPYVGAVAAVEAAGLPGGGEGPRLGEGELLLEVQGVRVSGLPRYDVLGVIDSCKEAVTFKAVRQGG

Question: What does the source list for SSLQSLETSV [ATP2B4, P23634]?
Answer: pKd (DFNB31_2, Q9P202): below the threshold; pKd (CASK, O14936): below the threshold; pKd (GRID2IP_1, A4D2P6): below the threshold; pKd (Inadl_5, Q8NI35): below the threshold; pKd (GIPC2, Q8TF65): 4.16; pKd (FRMPD2_3, Q68DX3): below the threshold; pKd (PDLIM1, O00151): 3.66; pKd (TJP2_1, Q9UDY2): 3.62; pKd (FRMPD1, Q5SYB0): below the threshold; pKd (DLG3_1, Q92796): 4.35; pKd (MAGI1_1, Q96QZ7): 3.71; pKd (DLG2_3, Q15700): 4.88; pKd (Inadl_10, Q8NI35): below the threshold; pKd (GRIP2_3, Q9C0E4): below the threshold; pKd (SCRIB_2, Q14160): 4.9; pKd (LIN7A, O14910): 4.04; pKd (SCRIB_1, Q14160): 5.03; pKd (Inadl_1, Q8NI35): below the threshold; pKd (DFNB31_1, Q9P202): 4.17; pKd (GRASP, Q7Z6J2): 3.6; pKd (NHERF3_1, Q5T2W1): 4.41; pKd (PARD3B_1, Q8TEW8): below the threshold; pKd (MAGI2_3, Q86UL8): 4.2; pKd (RADIL, Q96JH8): 3.69; pKd (MPDZ_10, O75970): below the threshold; pKd (MPDZ_5, O75970): 3.58; pKd (IL16_3, Q14005): below the threshold; pKd (MAGI2_2, Q86UL8): 4.49

Question: With DKDPHSETAL [TMIGD1, Q6UXZ0] as the binder, how does the pKd (DFNB31_2, Q9P202) read?
Answer: below the threshold

Question: And the pKd (CASK, O14936)?
Answer: below the threshold

Question: What about the pKd (GRID2IP_1, A4D2P6) of the same binder?
Answer: below the threshold

Question: And the pKd (Inadl_5, Q8NI35)?
Answer: below the threshold

Question: And the pKd (GIPC2, Q8TF65)?
Answer: below the threshold

Question: What about the pKd (FRMPD2_3, Q68DX3) of the same binder?
Answer: below the threshold

Question: What about the pKd (PDLIM1, O00151) of the same binder?
Answer: below the threshold

Question: And the pKd (TJP2_1, Q9UDY2)?
Answer: below the threshold

Question: What about the pKd (FRMPD1, Q5SYB0) of the same binder?
Answer: below the threshold

Question: What about the pKd (DLG3_1, Q92796) of the same binder?
Answer: below the threshold

Question: And the pKd (MAGI1_1, Q96QZ7)?
Answer: below the threshold

Question: And the pKd (DLG2_3, Q15700)?
Answer: below the threshold

Question: And the pKd (Inadl_10, Q8NI35)?
Answer: below the threshold

Question: And the pKd (GRIP2_3, Q9C0E4)?
Answer: below the threshold

Question: What about the pKd (SCRIB_2, Q14160) of the same binder?
Answer: 4.23

Question: And the pKd (LIN7A, O14910)?
Answer: below the threshold

Question: What about the pKd (SCRIB_1, Q14160) of the same binder?
Answer: 4.64

Question: What about the pKd (Inadl_1, Q8NI35) of the same binder?
Answer: below the threshold

Question: What about the pKd (DFNB31_1, Q9P202) of the same binder?
Answer: 3.98

Question: What about the pKd (GRASP, Q7Z6J2) of the same binder?
Answer: below the threshold

Question: And the pKd (NHERF3_1, Q5T2W1)?
Answer: 5.42

Question: And the pKd (PARD3B_1, Q8TEW8)?
Answer: below the threshold

Question: What about the pKd (MAGI2_3, Q86UL8) of the same binder?
Answer: 3.52

Question: And the pKd (RADIL, Q96JH8)?
Answer: below the threshold

Question: What about the pKd (MPDZ_10, O75970) of the same binder?
Answer: below the threshold

Question: And the pKd (MPDZ_5, O75970)?
Answer: below the threshold

Question: And the pKd (IL16_3, Q14005)?
Answer: below the threshold

Question: What about the pKd (MAGI2_2, Q86UL8) of the same binder?
Answer: 3.63

Question: How did the pKd (DFNB31_2, Q9P202) turn out when KKYVDAETSL [SLC4A7, Q9Y6M7] was run?
Answer: 3.5

Question: And the pKd (CASK, O14936)?
Answer: below the threshold

Question: And the pKd (GRID2IP_1, A4D2P6)?
Answer: below the threshold

Question: What about the pKd (Inadl_5, Q8NI35) of the same binder?
Answer: below the threshold

Question: What about the pKd (GIPC2, Q8TF65) of the same binder?
Answer: 3.68

Question: And the pKd (FRMPD2_3, Q68DX3)?
Answer: below the threshold

Question: And the pKd (PDLIM1, O00151)?
Answer: below the threshold

Question: What about the pKd (TJP2_1, Q9UDY2) of the same binder?
Answer: below the threshold

Question: What about the pKd (FRMPD1, Q5SYB0) of the same binder?
Answer: below the threshold

Question: And the pKd (DLG3_1, Q92796)?
Answer: 3.49

Question: What about the pKd (MAGI1_1, Q96QZ7) of the same binder?
Answer: below the threshold

Question: And the pKd (DLG2_3, Q15700)?
Answer: below the threshold

Question: And the pKd (Inadl_10, Q8NI35)?
Answer: below the threshold

Question: And the pKd (GRIP2_3, Q9C0E4)?
Answer: below the threshold

Question: And the pKd (SCRIB_2, Q14160)?
Answer: 3.77

Question: What about the pKd (LIN7A, O14910) of the same binder?
Answer: below the threshold

Question: What about the pKd (SCRIB_1, Q14160) of the same binder?
Answer: 5.54

Question: And the pKd (Inadl_1, Q8NI35)?
Answer: 3.55

Question: What about the pKd (DFNB31_1, Q9P202) of the same binder?
Answer: 3.98

Question: What about the pKd (GRASP, Q7Z6J2) of the same binder?
Answer: 3.73

Question: And the pKd (NHERF3_1, Q5T2W1)?
Answer: 5.38

Question: What about the pKd (PARD3B_1, Q8TEW8) of the same binder?
Answer: 3.65

Question: What about the pKd (MAGI2_3, Q86UL8) of the same binder?
Answer: below the threshold

Question: What about the pKd (RADIL, Q96JH8) of the same binder?
Answer: below the threshold

Question: And the pKd (MPDZ_10, O75970)?
Answer: below the threshold

Question: What about the pKd (MPDZ_5, O75970) of the same binder?
Answer: below the threshold

Question: And the pKd (IL16_3, Q14005)?
Answer: below the threshold

Question: What about the pKd (MAGI2_2, Q86UL8) of the same binder?
Answer: 3.77

Question: Which pKd (DFNB31_2, Q9P202) does the source give for RHTTSTETAV [HPV30-E6, P36809] here?
Answer: below the threshold

Question: What about the pKd (CASK, O14936) of the same binder?
Answer: below the threshold

Question: And the pKd (GRID2IP_1, A4D2P6)?
Answer: below the threshold

Question: And the pKd (Inadl_5, Q8NI35)?
Answer: below the threshold

Question: And the pKd (GIPC2, Q8TF65)?
Answer: 3.96

Question: And the pKd (FRMPD2_3, Q68DX3)?
Answer: 3.87

Question: What about the pKd (PDLIM1, O00151) of the same binder?
Answer: below the threshold

Question: What about the pKd (TJP2_1, Q9UDY2) of the same binder?
Answer: below the threshold

Question: And the pKd (FRMPD1, Q5SYB0)?
Answer: below the threshold

Question: And the pKd (DLG3_1, Q92796)?
Answer: 4.45

Question: And the pKd (MAGI1_1, Q96QZ7)?
Answer: below the threshold

Question: What about the pKd (DLG2_3, Q15700) of the same binder?
Answer: 4.79

Question: What about the pKd (Inadl_10, Q8NI35) of the same binder?
Answer: below the threshold

Question: What about the pKd (GRIP2_3, Q9C0E4) of the same binder?
Answer: 3.61

Question: And the pKd (SCRIB_2, Q14160)?
Answer: 5.11

Question: And the pKd (LIN7A, O14910)?
Answer: 3.8

Question: And the pKd (SCRIB_1, Q14160)?
Answer: 4.76

Question: And the pKd (Inadl_1, Q8NI35)?
Answer: below the threshold

Question: What about the pKd (DFNB31_1, Q9P202) of the same binder?
Answer: 4.27

Question: And the pKd (GRASP, Q7Z6J2)?
Answer: 3.96

Question: What about the pKd (NHERF3_1, Q5T2W1) of the same binder?
Answer: 4.87

Question: What about the pKd (PARD3B_1, Q8TEW8) of the same binder?
Answer: below the threshold

Question: And the pKd (MAGI2_3, Q86UL8)?
Answer: 4.57

Question: What about the pKd (RADIL, Q96JH8) of the same binder?
Answer: below the threshold

Question: And the pKd (MPDZ_10, O75970)?
Answer: below the threshold

Question: And the pKd (MPDZ_5, O75970)?
Answer: below the threshold

Question: And the pKd (IL16_3, Q14005)?
Answer: below the threshold

Question: And the pKd (MAGI2_2, Q86UL8)?
Answer: 5.04
